The target of assay [1] is T1, human C5a (human, UniProt P01031 678-751).
T1 sequence (looked up): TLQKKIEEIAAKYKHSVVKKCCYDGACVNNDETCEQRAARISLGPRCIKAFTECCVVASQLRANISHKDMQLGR
As to the kind of experiment: SPR (Biacore), 'under similar conditions' to the humanized antibody; murine antibody. On the technique in general: In SPR one partner is held on a chip, and binding of the other changes the refractive index at the surface.

The target in assay [2] is T1, human C5a. The assay can be described thus: SPR (Biacore), antibody captured by anti-human Fc on CM5 chip, human C5a 0.6-5.9 nM in solution, 1:1 Langmuir fit; humanized antibody. From the text:
The humanized antibody was subjected to BIAcore analysis to quantify its affinity for human C5a, in part, to determine if humanization affected the binding affinity of the antibody for its antigen. See, e.g., Karlsson and Larsson (2004) Methods Mol Biol 248:389-415. Briefly, the humanized antibody was screened with 3-4 concentrations of human C5a (antigen) using a capture technique. The antibody was captured by an anti-Fc (human) antibody directly immobilized on a CM5 sensor chip with various concentrations in the range from 0.6 nM to 5.9 nM of human C5a passed over the sensor chip surface. The surface was regenerated with 20 mM HCl, 0.02% P20 after each cycle to remove bound antibody and antigen. The data were evaluated using Biacore BIAevaluation software using a 1:1 Langmuir Model Fit (Rmax:Global Fit; RI:Local Fit). Kinetics information such as kₐ (Association Rate constant), kd (Dissociation Rate constant), and KD (Equillibrium Dissociation constant) was obtained from the fit. […] Methods for testing the humanized antibody for reduced immunogenicity in a human, as compared to the donor antibody, are known in the art and described herein.

For orientation: Kd means the constant that tells how readily two partners part at equilibrium. Higher therefore signals lower affinity. In general, koff refers to the rate constant with which the complex falls apart. What is called kon is the second-order rate constant of association.

B1: murine anti-human C5a antibody (antibody, V domains shown)
VH: EVQLQQSGPELVKPGSSVKISCKASGYTFTDYSMDWVKQSHGKSLEWIGAINPNSGGTNYSQKFKDKATLTVDKSSSTAYMELRSLTSEDSAVYYCASSGSYDGYYAMDYWGQGTSVTVSS
VL: DIVMTQSPASLAVSLGQRATISCRASESVDSYGNSFMHWYQQKPGQPPKLLIYRASNLESGIPARFSGSGSRTDFTLTINPVEADDVATYYCQQSNEDPYTFGGGTKLEIKR
notes: also called murine anti-C5a antibody; murine anti-C5a antibody counterpart
As to B1, in the assay with human C5a [1], the Kd is approximately 512 pM, the koff was approximately 0.00141 s⁻¹ and the kon is approximately 2.76e+06 M⁻¹ s⁻¹.

B2: humanized anti-human C5a antibody (antibody, V domains shown)
VH: QVQLVQSGAEVKKPGASVKVSCKASGYTFTDYSMDWVRQAPGQGLEWMGAINPNSGGTNYNQKFKDRVTMTRDTSTSTVYMELSSLRSEDTAVYYCARSGSYDGYYAMDYWGQGTTVTVSS
VL: DIQMTQSPSSLSASVGDRVTITCRASESVDSYGNSFMHWYQQKPGKAPKLLIYRASNLESGVPSRFSGSGSGTDFTLTISSLQPEDFATYYCQQSNEDPYTFGGGTKVEIK
notes: also called humanized anti-C5a antibody; the humanized antibody
Turning to B2, in the assay with human C5a [2], the Kd was approximately 298 pM, the koff is approximately 0.000576 s⁻¹ and the kon was approximately 1.93e+06 M⁻¹ s⁻¹.

Values taken from patent US20140206849A1 (Alexion, published 2014).
